In patent US20070065819A1 (Takeda / Millennium, published 2007):
Where no end group is shown, it is not given here. The star is where a group is joined. For = O=C*

Target: T1, human FPRL1 (human, UniProt P25090 1-351)
T1 construct: Expressed in CHO cells (No. 8); also called human-derived FPRL1
T1 sequence: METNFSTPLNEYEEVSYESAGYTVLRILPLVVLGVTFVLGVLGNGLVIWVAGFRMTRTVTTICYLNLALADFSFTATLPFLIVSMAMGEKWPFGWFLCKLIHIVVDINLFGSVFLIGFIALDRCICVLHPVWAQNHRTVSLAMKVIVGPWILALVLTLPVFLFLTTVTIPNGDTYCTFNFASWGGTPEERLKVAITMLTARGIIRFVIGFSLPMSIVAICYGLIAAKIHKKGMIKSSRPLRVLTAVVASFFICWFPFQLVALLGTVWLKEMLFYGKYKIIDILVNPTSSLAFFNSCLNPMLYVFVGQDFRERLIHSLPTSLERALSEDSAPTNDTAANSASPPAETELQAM
Assay: competitive inhibition of binding of 125I-labeled compound to membrane fraction of human FPRL1-expressing CHO cells, filter trapping
Experimental: Then, by reverse phase HPLC using TSKgel ODS-80TM CTR 4.6 x 100 mm column, a peak of labeled form, which was produced by the reaction, was fractionated. The fraction was mixed with an equal volume of assay buffer (50 mM Tris-HCI/pH7.5, 5 mM EDTA, 0.5 mM PMSF, 20 μg/ml leupeptine, 0.1 μtg/ml pepstatin A, 4 μg/ml E-64 (Peptide Institute), and 0.1% bovine serum albumin) and stored at −30° C. until use.
Human FPRL1-expressing CHO cells (No. 8) were cultivated, collected using PBS containing 5 mM EDTA from culture vessel, and suspended in assay buffer containing no bovine serum albumin, which is described above. Homogenization using Polytron homegenizer (Kinematica) at 18,000 rpm for 40 seconds was performed three times. After centrifugation (1000xg, 4° C., 10 minutes), supernatant was recovered. […]
Competitive inhibition test was carried out under the following conditions. […] After completely drying the filter, Microcinti 0 (Packard) was added to the filter, and a level of labeled form co-trapped with the membrane fraction on the filter was measured using Topcount (Pakard). Non-specific binding level was subtracted from each measured value. Then the ratio of reduced binding level by addition of test sample to the well with notest sample (total binding level), that is, the inhibition rate was calculated. Further, from dosage of test sample-inhibition curve, IC₅₀ was calculated (Table 1).

B1: porcine FPRL1 ligand P3 (pfCYOX-1(1-13)) (peptide)
peptide: For-MFVNRWLYSTNHK
notes: The purified fraction also held a Met(O) oxidant; also called porcine FPRL ligand P3; porcine intrinsic FPRL1 ligand P3
IC50: 0.15 nM

B2: human FPRL1 ligand P3 (hfCYOX-1(1-13)) (peptide)
peptide: For-MFADRWLFSTNHK
notes: Synthesized at Peptide Institute, Inc; also called human FPRL ligand P3
IC50: 1.1 nM
